Measured values as given in patent US20200200749A1 (published 2020).

Key:
[1] = molecular target: T1, EBOV GP (recombinant, full-length extracellular domain) (EBOV (Ebola Zaire), UniProt Q05320 33-650); assay: ELISA
T1 chain: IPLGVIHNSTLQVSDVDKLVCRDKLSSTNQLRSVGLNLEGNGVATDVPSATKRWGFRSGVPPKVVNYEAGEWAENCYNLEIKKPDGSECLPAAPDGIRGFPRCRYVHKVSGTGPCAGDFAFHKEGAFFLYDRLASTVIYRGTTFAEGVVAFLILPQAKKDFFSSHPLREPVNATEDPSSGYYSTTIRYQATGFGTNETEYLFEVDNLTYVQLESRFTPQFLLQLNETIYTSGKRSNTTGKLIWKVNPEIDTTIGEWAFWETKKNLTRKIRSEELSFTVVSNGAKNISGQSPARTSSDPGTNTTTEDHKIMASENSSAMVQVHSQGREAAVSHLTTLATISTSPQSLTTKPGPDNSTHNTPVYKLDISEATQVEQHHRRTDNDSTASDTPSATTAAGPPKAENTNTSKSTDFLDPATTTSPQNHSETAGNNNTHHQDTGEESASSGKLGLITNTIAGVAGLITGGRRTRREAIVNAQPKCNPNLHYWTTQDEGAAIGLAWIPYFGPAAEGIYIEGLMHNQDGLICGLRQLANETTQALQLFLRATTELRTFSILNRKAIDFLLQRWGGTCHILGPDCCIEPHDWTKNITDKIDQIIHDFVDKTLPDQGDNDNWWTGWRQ

SUDV GP (recombinant) = molecular target: T2, SUDV GP (recombinant) (SUDV (Sudan ebolavirus), UniProt Q66814 33-650); assay: ELISA
T2 chain: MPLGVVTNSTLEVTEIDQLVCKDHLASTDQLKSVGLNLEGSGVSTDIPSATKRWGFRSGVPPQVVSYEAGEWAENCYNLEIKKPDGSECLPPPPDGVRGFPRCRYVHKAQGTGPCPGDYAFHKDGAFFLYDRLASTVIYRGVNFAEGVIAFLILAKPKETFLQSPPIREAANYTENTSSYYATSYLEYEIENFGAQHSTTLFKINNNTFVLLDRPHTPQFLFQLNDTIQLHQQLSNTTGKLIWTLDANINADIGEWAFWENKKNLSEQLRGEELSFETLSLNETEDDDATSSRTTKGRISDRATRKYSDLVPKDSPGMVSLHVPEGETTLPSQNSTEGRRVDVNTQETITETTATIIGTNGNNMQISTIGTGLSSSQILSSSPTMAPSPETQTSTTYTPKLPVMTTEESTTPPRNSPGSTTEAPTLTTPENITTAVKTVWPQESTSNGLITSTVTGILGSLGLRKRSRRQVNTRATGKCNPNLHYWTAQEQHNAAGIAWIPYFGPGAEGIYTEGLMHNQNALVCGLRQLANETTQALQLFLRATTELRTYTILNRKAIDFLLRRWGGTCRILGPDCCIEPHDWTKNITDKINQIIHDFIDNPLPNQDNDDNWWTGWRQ

B1: BDBV324 (antibody, V domains shown)
VH: QVQLVQSGAEVKKPGASVKVSCKTSGYTFTSFEIHWVRQGSGQGLEWMGRMNPKSGDTVSAQKFQGRVTLTRDTSINAAYMELGSLSSEDTAVYYCARGPHVGEVVPGLMAGTYYFPLDVWGQGTLVTVSS
VL: DIQMTQSPSTLSASIGDRVTITCRASQSISRWLAWYQQKPGKAPKLLIYKVSDLQSGVPSRFSGSGYGTEFTLTIGSLQPDDLATYYCQQYDTYPWTFGQGTKLEIK
EC50 [1]: 0.131 µg/mL
EC50 (SUDV GP (recombinant)): 0.09 µg/mL

B2: BDBV270 (antibody, V domains shown)
VH: QVQLQESGPGLVKPSQTLSLTCTVSGASISRGLYYWSWIRQPAGKGLEWIGRIYTSGSINYNPSLKSRVTISVDTSKNQFSLRLSSVIATDTAVYYCVRDAPWGDFLTGYFGFYGMDVWGQGTLVTVSS
VL: DIVMTQSPSSLSASVGDRVTITCRASQSINTYLNWYQQKPGKAPKFLIYAASSLHSGVPSRFSGSGSGTDFTLTINSLQPDDFATYYCQQSFTTPYTFGQGTKLEIK
EC50 [1]: 0.173 µg/mL
EC50 (SUDV GP (recombinant)): 0.159 µg/mL

B3: BDBV223 (antibody, V domains shown)
VH: QVQLQQWGAGLLKPSETLSLTCAVYGGSFTTTYWNWIRQPPGKGLEWIGEVNYSGNANYNPSLKGRVAISVDTSKNQFSLRLNSVTAADTAIYYCTSRIRSHIAYSWKGDVWGKGTTVTVSS
VL: EIVMTQSPGTLSLSPGERATLSCRASQSVPRNYIGWFQQKPGQAPRLLIYGASSRAAGFPDRFSGSGSGTDFTLTITRLEPEDFAMYYCHQYDRLPYTFGQGTKLEIK
EC50 [1]: 0.024 µg/mL
EC50 (SUDV GP (recombinant)): 0.106 µg/mL

B4: BDBV289 (antibody, V domains shown)
VH: QVQLVQSGAEVKKPGSSVKVSCKASGATFGSDTVTWVRQAPGQGLEWMGGIIPFFGEANYAQRFQGRVTITADKSTNTAYMELSSLRSEDTAVYFCARQINEMATFGEIHYYTYMDVWGQGTLVTVSS
VL: GSELTQDPAVSVALGQTVRITCQGDSLRNYYASWYQQKPRQAPVLVFYGKNNRPSGIPDRFSGSSSGNTASLTISGAQAEDEADYYCNSRDSSSNHLVFGGGTKLTVLS
EC50 [1]: 0.029 µg/mL
EC50 (SUDV GP (recombinant)): 0.103 µg/mL
